{"source": "patent US20210187069A1", "target": "wildtype SARM1 (endogenous, in wildtype mouse dorsal root ganglion neurons) (mouse) (UniProt Q6PDS3)", "sequence (Q6PDS3 28-724 limits assumed)": "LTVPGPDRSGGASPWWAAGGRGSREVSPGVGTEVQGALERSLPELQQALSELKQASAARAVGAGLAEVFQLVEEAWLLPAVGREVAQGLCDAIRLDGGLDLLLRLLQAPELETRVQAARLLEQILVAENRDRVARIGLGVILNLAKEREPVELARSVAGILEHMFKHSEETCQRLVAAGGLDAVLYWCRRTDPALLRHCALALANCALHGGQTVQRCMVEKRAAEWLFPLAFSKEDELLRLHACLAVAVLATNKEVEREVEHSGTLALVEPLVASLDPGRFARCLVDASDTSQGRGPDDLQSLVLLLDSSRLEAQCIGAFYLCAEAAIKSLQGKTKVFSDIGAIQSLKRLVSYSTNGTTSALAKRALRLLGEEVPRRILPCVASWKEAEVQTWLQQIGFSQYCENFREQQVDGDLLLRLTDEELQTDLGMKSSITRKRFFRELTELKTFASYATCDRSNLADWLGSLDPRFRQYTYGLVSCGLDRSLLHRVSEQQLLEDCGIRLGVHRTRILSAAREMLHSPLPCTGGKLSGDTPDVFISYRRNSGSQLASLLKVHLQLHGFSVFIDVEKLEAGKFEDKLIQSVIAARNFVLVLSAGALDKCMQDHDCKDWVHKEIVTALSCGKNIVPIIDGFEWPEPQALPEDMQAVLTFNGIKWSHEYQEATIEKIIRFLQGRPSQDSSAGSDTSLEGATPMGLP", "assay": "cell-based or functional assay"}
{"substance": "SARM1 E569K (from UniProt Q6SZW1 28-724)", "values": [{"measurement": "axon degeneration after axotomy", "result": 24, "unit": "h"}]}
